The experiment deals with rat prolactin receptor on Nb2 rat lymphoma cells (rat) (UniProt P05710). Description: FACS on rat lymphoma cell line Nb2, IgG1.

One may read the EC50 as the concentration giving half of the maximal effect. A high value points to lower potency in that assay.

B1: XHA06.642 (antibody, V domains shown)
VH: EVQLVESGGDLVKPGGSLKLSCAVSGFTFSSYGMSWVRQTPDKRLEWVATVSSGGTYTYYPDSVKGRFTISRDNAKNTLYLQMSSLKSEDSAMYYCARHRGNYYATYYYAMDYWGQGTSVTVSS
VL: DIVLTQSPASLAVSLGQGATISCRASKSVSTSGYTYMHWYQQKPGQPPKLLIYLASNLESGVPARFSGSGSGTDFTLNIHPVEEEDAATYYCQHSGELPPSFGGGTKLEIKR
Consider B1, for which the EC50 worked out at 1.1 nM.

B2: HE06.642 (antibody, V domains shown)
VH: EVQLVESGGGLVQPGGSLRLSCAVSGFTFSSYGMSWVRQAPGKGLEWVATVSSGGTYTYYPDSVKGRFTISRDNSKNTLYLQMNSLRAEDTAVYYCARHRGNYYATYYYAMDYWGQGTLVTVSS
VL: DIVLTQSPDSLAVSLGERATINCKASKSVSTSGYTYMHWYQQKPGQPPKLLIYLASNRESGVPDRFSGSGSGTDFTLTISPVQAEDVATYYCQHSGELPPSFGQGTKLEIKR
B2: the EC50 is 0.9 nM.

B3: 001-E06 (IgG1) (antibody, V domains shown)
VH: QVELLESGGGLVQPGGSLRLSCAASGFTFSSYWMSWVRQAPGKGLEWVSSVSDTGTDTHYADSVKGRFTISRDNSKNTLYLQMNSLRAEDTAVYYCAKTPLAYSSGWYYFDYWGQGTLVTVSS
VL: DIVLTQPPSASGTPGQRVTISCSGSSSNIGSNTVNWYQQLPGTAPKLLIYRNYQRPSGVPDRFSGSKSGTSASLAISGLRSEDEADYYCQSYDSSLSGSVFGGGTKLTVLG
B3 came in with an EC50 of 1.2 nM.

(Values after patent US20130022606A1.)
